The source of these data is patent US20080227700A1, “Compositions and Methods for Treatment of Protein Misfolding and Protein Aggregation Diseases” (priority 2004, published 2008).

The target in test [1] is beta amyloid (Homo sapiens, UniProt P05067). As to the kind of experiment: αB crystallin protein pin array screened for binding to beta amyloid. The note with it: immobilized 8-mer peptide; absorption at 450 nm; assayed 2-5 times. The text has this:
αB Crystallin peptides that bind the target protein beta-amyloid were identified by screening an αB crystallin protein pin array, which provides a systematic method for evaluating interactions between peptides corresponding to residues 1-175 of human αB crystallin and selected target proteins in a parallel and simultaneous manner.
Peptides were synthesized on derivatized polyethylene pins arranged in a microtiter plate format. Each peptide was 8 amino acids in length and consecutive peptides were offset by 2 amino acids. All peptides were covalently bonded to the surface plastic pins. The first immobilized peptide was 1MDIAIHHP8 and the last peptide was 168PAVTAAPK175 for the human αB crystallin.
After synthesis, the pins were pre-coated at room temperature with 2% Bovine Serum Albumin (BSA), 0.1% Tween-20 and 0.1% Sodium azide in 10 mM phosphate buffered saline pH 7.2 (PBS) for 1 hr, and washed three times for 10 mins each with 10 mM PBS. To screen for binding to the peptides, fixed concentrations of the target protein beta amyloid was dissolved in 10 mM PBS, containing 0.05% Tween-20, added to each well and incubated for 1 hr at room temperature. The pin array was washed three times for 10 mins each with 10 mM PBS, containing 0.05% Tween-20. Monoclonal or polyclonal primary antibodies for the target protein beta amyloid was diluted into PBS buffer, added to each well and incubated for 1 hr at room temperature. Subsequently, the pin array was washed three times for 10 mins each with 10 mM PBS containing 0.05% Tween-20. Anti-rabbit horse-radish peroxidase conjugate secondary antibodies was diluted into PBS buffer, added to each well and incubated for 1 hr at room temperature. The pin array was washed three times for 10 mins each with 10 mM PBS containing 0.05% Tween-20. A chromogenic substrate of horse-radish peroxidase 3,3′,5,5′-Tetramethylbenzidine (TMB) (Pharmingen, San Diego, Calif.) which is colorless was added, and the reaction was carried out for 45 min.
The reaction was stopped by adding 6N sulfuric acid, which changes the color from blue to yellow. The absorption at 450 nm was measured by an ELISA reader (BioTek, Winooski, Vt.).
The pin array was regenerated by sonication in a water bath (VWR Aquasonic, West Chester, Pa.) with 100 mM PBS, containing 1% Sodium dodecyl sulfate (SDS) and 0.1% 2-Mercaptoethanol @ 60° C. for 10 mins. Next, the pin array was rinsed three times in deionized water, preheated to 60° C. for 30 secs each time, and shaken in water preheated at 60° C. for 30 min. The pin array was then washed with methanol at 60° C. for 15 secs and air-dried and stored @−20° C. for future use. Each target protein was assayed 2-5 times against the human αB crystallin protein pin array peptides to verify the reproducibility of the results. Peptides numbered 5, 7, 8, 9, 13, 19, 22, 23, 24, 27, 35, 38, 45, 51, 52, 56, 57, 61, 66, 71, 72, and 79 in Table 2 reproducibly tested positive in the protein pin assay.

In test [2] the target is T1, equine alcohol dehydrogenase (ADH) (Equus caballus, UniProt P00327).
T1 construct: purchased
As to the kind of experiment: Protein pin array interaction with alcohol dehydrogenase. In kind it is binding. The note with it: ADH as ligand, unheated and pre-heated. The text has this:
(§1) Synthesis of Pins, binding and detection of peptides binding to ligand proteins. The αB crystallin protein pin array was used to measure the interaction between peptides and chaperone target proteins including bovine βH crystallin, human γD crystallin, equine alcohol dehydrogenase (ADH) and porcine citrate synthase (CS) as described (FIG. 12). Ghosh and Clark, Protein Sci 14: 684-95, 2005.
(§2) Refer to the methods section for detailed protocols. The absorbance corresponding to the blue coloration in each well was measured at λ=450 nm and plotted against the amino acid sequence of the corresponding peptide in that well (FIGS. 13 and 14). Wells containing peptides that have strong interactions with target proteins are dark blue and wells containing peptides that have weak or no interaction with target proteins are light blue or clear.
(§3) The purity of the target proteins used in the pin array assays, bovine βH crystallin, human γD crystallin, equine alcohol dehydrogenase (ADH) and porcine citrate synthase (CS) were determined to be >90% by SDS-PAGE. In addition, primary antibodies for each target protein were specific to that target protein and consequently contaminating proteins that may bind to the peptides will not be detected. Eighty-four sequential and overlapping peptide fragments corresponding to residues 1-175 of human αB crystallin were synthesized employing a simultaneous peptide synthesis strategy developed by Geysen, called Multipin Peptide Synthesis (Mimotopes, San Diego, Calif.). Geysen, Southeast Asian J Trop Med Public Health 21: 523-33, 1990; Chin et al., J Org Chem 62: 538-539, 1997. Peptides were immobilized on derivatized polyethylene pins arranged in a microtiter ELISA plate format. Each peptide was eight amino acids in length and consecutive peptides were offset by two amino acids. All peptides were bound covalently to the surface of the plastic pins. The first peptide was […] for human αB crystallin.
(§4) Ghosh and Clark, Protein Sci 14: 684-95, 2005. […] The intensity of the blue color in the wells was measured at 450 nm using an ELISA plate-reader (BioTek, Winooski, Vt.). The intensity of the blue color (plotted on the X-axis) was a measure of the interaction between αB crystallin peptides (plotted on the Y-axis) and target proteins. To measure the effect of temperature on the interactions between interactive peptides and the target proteins, the target proteins were heated in a water-bath at 45° C. for fifteen minutes prior to use. Pin arrays are unable to differentiate between monomers, dimers or oligomers of target proteins that exist in solution. Instead, pin arrays are very sensitive detectors of interactions between individual peptides and the entire population (monomers, dimers or oligomers) of specific target proteins that may exist in solution under specific conditions. Each target protein was assayed two to five times. A single pin array was used for all experiments and no change in interactions was observed after more than thirty repetitions. The last three peptides of the protein pin array, 163REEKPAVT170, 165EKPAVTAA172, 167PAVTAAPK174, correspond to the epitope (163REEKPAVTAAPKK175) recognized by the primary antibody for human αB crystallin. A positive reaction is observed for these three peptides in the absence of human αB crystallin as the ligand due to direct binding of the anti-human αB crystallin antibody to these three peptides. The loss of efficiency for the pin array was measured using this assay. The loss of efficiency for the pin array was determined to be <5% by after more than 30 assays.
(§5) The Y-axis lists the amino acid sequences of the 8-mer peptides that are immobilized sequentially in a 96-well format. […]

For test [3], the target named is T2, porcine citrate synthase (CS) (Sus scrofa, UniProt P00889).
T2 construct: purchased
T2 sequence (P00889 28-464): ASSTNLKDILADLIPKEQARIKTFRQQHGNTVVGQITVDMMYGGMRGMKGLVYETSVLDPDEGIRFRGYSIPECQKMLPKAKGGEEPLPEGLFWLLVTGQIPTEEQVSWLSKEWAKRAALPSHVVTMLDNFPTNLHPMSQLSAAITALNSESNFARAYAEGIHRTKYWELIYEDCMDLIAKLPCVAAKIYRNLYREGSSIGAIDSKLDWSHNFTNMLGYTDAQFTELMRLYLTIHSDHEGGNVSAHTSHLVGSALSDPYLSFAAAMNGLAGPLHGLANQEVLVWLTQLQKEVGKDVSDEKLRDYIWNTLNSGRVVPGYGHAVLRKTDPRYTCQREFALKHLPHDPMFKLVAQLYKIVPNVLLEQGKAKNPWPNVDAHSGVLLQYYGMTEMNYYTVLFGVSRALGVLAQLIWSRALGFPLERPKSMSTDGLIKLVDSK
In words: Protein pin array interaction with citrate synthase. The test is classed as binding. The conditions noted are these: CS as target protein, unheated and pre-heated.
Source text: as §1, §2, §3, §4, §5

In test [4] the target is T3, γD crystallin (Homo sapiens, UniProt P07320).
T3 sequence (P07320 1-174): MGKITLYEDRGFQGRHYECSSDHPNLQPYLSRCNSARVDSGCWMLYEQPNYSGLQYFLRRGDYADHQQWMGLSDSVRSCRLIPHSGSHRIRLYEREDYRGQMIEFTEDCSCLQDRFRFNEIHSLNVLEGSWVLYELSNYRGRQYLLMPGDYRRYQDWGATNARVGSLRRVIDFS
As to the kind of experiment: Protein pin array interaction with γD crystallin. The conditions noted are these: unheated γD crystallin; similar peptide sequences with γD crystallin pre-heated at 45° C. for fifteen minutes. In kind it is binding. Set-up: purchased.
Source text: as §1, §2, §3, §4
(§6) The amino acid sequences of each 8-mer human αB crystallin peptide immobilized sequentially on 84 pins in a 96-well ELISA plate format are listed on the Y-axis. […]

The test system of test [5] is bovine βH crystallin. In words: Protein pin array interaction with βH crystallin. The test is classed as binding. The conditions noted are these: unheated βH crystallin; similar maxima with βH crystallin pre-heated at 45° C. for fifteen minutes.
Source text: as §1, §2, §3, §4, §6

T1 sequence (P00327 whole entry): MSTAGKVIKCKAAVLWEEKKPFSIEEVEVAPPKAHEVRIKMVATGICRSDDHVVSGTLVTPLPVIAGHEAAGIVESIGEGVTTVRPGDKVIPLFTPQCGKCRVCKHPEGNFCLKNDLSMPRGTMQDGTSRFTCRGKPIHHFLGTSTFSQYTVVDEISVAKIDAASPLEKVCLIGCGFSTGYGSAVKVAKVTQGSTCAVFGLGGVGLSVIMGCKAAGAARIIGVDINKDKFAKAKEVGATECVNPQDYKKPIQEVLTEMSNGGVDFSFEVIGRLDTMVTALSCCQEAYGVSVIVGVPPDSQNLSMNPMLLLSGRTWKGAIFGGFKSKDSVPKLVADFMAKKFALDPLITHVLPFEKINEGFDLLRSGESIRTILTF

Take SLSPFYLR [Peptide 22]: the “protein pin assay result with target protein beta amyloid” value (shortened to “protein pin assay result”) in test [1] is recorded as “positive”. For the same sequence, the “absorbance at λ=450 nm, interaction with ADH” value (“absorbance … with ADH” below) in test [2] was “Maximum absorbances”. The “absorbance at λ=450 nm, interaction with CS” value (shortened to “absorbance … with CS”) in test [3] is reported as “absorbance maxima”. Moreover, the “absorbance at λ=450 nm, interaction with γD crystallin” value (“absorbance … with γD crystallin” below) in test [4] is reported as “maximum absorbances”.

With HGKHEERQ [Peptide 51], the “protein pin assay result” value in test [1] is recorded as “positive”.

In the case of RTIPITRE [Peptide 79], the “protein pin assay result” value in test [1] is given as “positive”. Besides, the “absorbance at λ=450 nm, interaction with βH crystallin” value (“absorbance … with βH crystallin” for short) in test [5] is given as “Maximum absorbances”. Also, the “absorbance … with ADH” value in test [2] was “Maximum absorbances”. Besides, the “absorbance … with CS” value in test [3] is “absorbance maxima”.

LKVKVLGD [Peptide 45]: the “protein pin assay result” value in test [1] was “positive”. Also, the “absorbance … with βH crystallin” value in test [5] is on record as “Maximum absorbances”.

Regarding LRPPSFLR [Peptide 25], in test [2], the “absorbance … with ADH” value is “Maximum absorbances”.

In the case of FYLRPPSF [Peptide 24], the “protein pin assay result” value in test [1] is given as “positive”. Moreover, the “absorbance … with βH crystallin” value in test [5] is reported as “Maximum absorbances”. Further, the “absorbance … with CS” value in test [3] is given as “absorbance maxima”. Moreover, the “absorbance … with γD crystallin” value in test [4] is “maximum absorbances”.

As for FISREFHR [Peptide 57], the “protein pin assay result” value in test [1] is “positive”. Besides, the “absorbance … with βH crystallin” value in test [5] was “Maximum absorbances”. Moreover, the “absorbance … with CS” value in test [3] was “absorbance maxima”.

As for PFFPFHSP [Peptide 7], in test [1], the “protein pin assay result” value is on record as “positive”. Also, the “absorbance … with ADH” value in test [2] is given as “Maximum absorbances”. Moreover, the “absorbance … with γD crystallin” value in test [4] was “maximum absorbances”.

Consider IAIHHPWI [Peptide 2], for which the “absorbance … with γD crystallin” value in test [4] is on record as “maximum absorbances”.

Consider GVLTVNGP [Peptide 71], for which the “protein pin assay result” value in test [1] was “positive”. The “absorbance … with βH crystallin” value in test [5] was “Maximum absorbances”. For the same sequence, the “absorbance … with ADH” value in test [2] is on record as “Maximum absorbances”. Also, the “absorbance … with γD crystallin” value in test [4] is listed as “maximum absorbances”.

Turning to LFPTSTSL [Peptide 19], in test [1], the “protein pin assay result” value was “positive”. In addition, in test [2], the “absorbance … with ADH” value is given as “Maximum absorbances”.

Consider EFHRKYRI [Peptide 59], for which the “absorbance … with γD crystallin” value in test [4] is “maximum absorbances”.

As to DQFFGEHL [Peptide 13], the “protein pin assay result” value in test [1] was “positive”. Besides, the “absorbance … with γD crystallin” value in test [4] is recorded as “maximum absorbances”.

In the case of PPSFLRAP [Peptide 26], the “absorbance … with βH crystallin” value in test [5] is “Maximum absorbances”.

Turning to RLEKDRFS [Peptide 35], the “protein pin assay result” value in test [1] is “positive”. The “absorbance … with βH crystallin” value in test [5] is “Maximum absorbances”. In addition, the “absorbance … with ADH” value in test [2] is recorded as “Maximum absorbances”.

For the sequence FFGEHLLE [Peptide 14], in test [2], the “absorbance … with ADH” value is “Maximum absorbances”.

Take LRAPSWFD [Peptide 28]: the “absorbance … with CS” value in test [3] is given as “absorbance maxima”.

SREFHRKY [Peptide 58]: the “absorbance … with ADH” value in test [2] is “Maximum absorbances”.

For the sequence SFLRAPSW [Peptide 27], the “protein pin assay result” value in test [1] is recorded as “positive”. Besides, the “absorbance … with γD crystallin” value in test [4] is recorded as “maximum absorbances”.

Regarding FHSPSRLF [Peptide 9], in test [1], the “protein pin assay result” value is “positive”.

Regarding HGFISREF [Peptide 56], the “protein pin assay result” value in test [1] is given as “positive”. The “absorbance … with γD crystallin” value in test [4] is “maximum absorbances”.

As to SPFYLRPP [Peptide 23], the “protein pin assay result” value in test [1] is “positive”. In test [5], the “absorbance … with βH crystallin” value was “Maximum absorbances”.

Take LTVNGPRK [Peptide 72]: the “protein pin assay result” value in test [1] is listed as “positive”. In addition, in test [3], the “absorbance … with CS” value is “absorbance maxima”.

With FPFHSPSR [Peptide 8], the “protein pin assay result” value in test [1] is reported as “positive”. For the same sequence, the “absorbance … with CS” value in test [3] was “absorbance maxima”.

Consider KHEERQDE [Peptide 52], for which, in test [1], the “protein pin assay result” value is “positive”.

In the case of KYRIPADV [Peptide 61], the “protein pin assay result” value in test [1] is “positive”. Further, the “absorbance … with βH crystallin” value in test [5] is listed as “Maximum absorbances”.
